Reference: the supplement of paper PMC6757056
± gives the standard deviation of the averaged measurements.

B1: library; a variant is named by its letters at N, in order (parent)
chain: GCUGUCACCGAGAAACUGUGAAGUAUAUCUUAAACCUGGGCACUUAAAAGAUAUAUGGAGUUAGUAGUGCAACCUGCUCGGUCUGAUGAGUCCNNNNNNGGACGAAACAGC

Experiments:
cyclic di-GMP [1] = variants of: B1; test: normalized RNA/DNA level without ligand (relative to sTRSVctl = 100) (log10 (% of sTRSVctl)); HEK293T; ligand: cyclic di-GMP (c-di-GMP-II aptamer); higher = less ribozyme self-cleavage, higher mRNA level; settings: reporter: mCherry (pCS4076), ligand present: no
Outline: (§1)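 Library plasmids encoding reporter-linked ribozyme switches (mCherry, or eGFP for some folinic acid experiments) were transfected into HEK293T at 4 µg per 6-well well. Ligand, when used, was added 1 h before transfection. Total RNA was extracted with EDTA 72 h later, then reverse-transcribed, amplified, barcoded and sequenced. RNA level was RNA reads over DNA reads, divided by a spiked-in non-cleaving control (or the top 25 sequences), ×100, log10; only sequences with ≥100 DNA reads were kept.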

cyclic di-GMP [2] = variants of: B1; test: normalized RNA/DNA level with ligand (relative to sTRSVctl = 100) (log10 (% of sTRSVctl)); HEK293T; ligand: cyclic di-GMP (c-di-GMP-II aptamer); ligand concentration (+) RNA-Seq: 1 mM; higher = less ribozyme self-cleavage, higher mRNA level; settings: reporter: mCherry (pCS4076), ligand present: yes
Outline: as §1

Variant	normalized RNA/DNA level without ligand (log10) (cyclic di-GMP [1])	normalized RNA/DNA level with ligand (log10) (cyclic di-GMP [2])
GGGUGC	1.749 ± 0.006	1.85 ± 0.093
UCUUCC	1.79 ± 0.059	1.92 ± 0.13
UUUCAG	1.75 ± 0.022	1.86 ± 0.1
CAGUCG	1.76 ± 0.067	1.9 ± 0.12
UCCCAA	1.6799 ± 0.00075	1.84 ± 0.077
CGUGGU	1.74 ± 0.021	1.87 ± 0.076
AUCCCA	1.76 ± 0.024	1.86 ± 0.091
UUGGUC	1.77 ± 0.0052	1.86 ± 0.11
GUCUGC	1.732 ± 0.012	1.87 ± 0.12
UGGUAA	1.56 ± 0.095	1.79 ± 0.096
UGGAUG	1.62 ± 0.027	1.82 ± 0.11
CUCAUU	1.79 ± 0.079	1.9 ± 0.12
AAUAUG	1.61 ± 0.06	1.74 ± 0.11
GUUAAC	1.67 ± 0.046	1.8 ± 0.037
GCUUCG	1.67 ± 0.022	1.76 ± 0.076
GUGACU	1.671 ± 0.002	1.8 ± 0.089
CGCUGC	1.806 ± 0.0025	1.9 ± 0.092
CCUGCU	1.698 ± 0.0032	1.84 ± 0.1
AGGGGU	1.57 ± 0.058	1.7 ± 0.13
GAAAAC	1.59 ± 0.016	1.74 ± 0.063
CACCGG	1.754 ± 0.011	1.89 ± 0.12
CUUUAU	1.58 ± 0.047	1.79 ± 0.11
GUCAAC	1.65 ± 0.055	1.79 ± 0.14

Variant	normalized RNA/DNA level without ligand (log10) (cyclic di-GMP [1])	normalized RNA/DNA level with ligand (log10) (cyclic di-GMP [2])
GCGCCA	1.699 ± 0.0061	1.84 ± 0.13
UGUACA	1.778 ± 0.0071	1.88 ± 0.095
UUCUAA	1.66 ± 0.025	1.8 ± 0.11
UAGGAG	1.59 ± 0.05	1.76 ± 0.13
UUUACG	1.83 ± 0.057	1.91 ± 0.12
CUAACC	1.8 ± 0.038	1.84 ± 0.12
GUUUUA	1.63 ± 0.032	1.82 ± 0.098
GCCGCA	1.74 ± 0.0018	1.84 ± 0.14
UCCGGG	1.852 ± 0.016	1.93 ± 0.06
UCCGGC	1.79 ± 0.062	1.95 ± 0.12
UUCUCC	1.83 ± 0.031	1.9 ± 0.1
AGCCUC	1.77 ± 0.073	1.87 ± 0.13
AUUAAU	1.674 ± 0.015	1.8 ± 0.12
GCCUUC	1.61 ± 0.038	1.79 ± 0.099
CAUCUA	1.4 ± 0.058	1.58 ± 0.066
ACUUAA	1.49 ± 0.085	1.68 ± 0.13
CAUGAG	1.714 ± 0.012	1.84 ± 0.074
GCAGCC	1.6725 ± 0.00097	1.83 ± 0.14
UGGUGC	1.72 ± 0.053	1.86 ± 0.099
ACUCGG	1.72 ± 0.074	1.76 ± 0.2
UUGAUC	1.73 ± 0.038	1.85 ± 0.11
AUCAAA	1.57 ± 0.059	1.77 ± 0.074
UUGCAA	1.69 ± 0.075	1.81 ± 0.037

Variant	normalized RNA/DNA level without ligand (log10) (cyclic di-GMP [1])	normalized RNA/DNA level with ligand (log10) (cyclic di-GMP [2])
UACUCC	1.76 ± 0.035	1.9 ± 0.14
AAGCGC	1.669 ± 0.011	1.84 ± 0.13
CAGUGG	1.68 ± 0.022	1.86 ± 0.065
AACGCG	1.702 ± 0.008	1.82 ± 0.12
UUACCG	1.8 ± 0.035	1.88 ± 0.11
GGGUCC	1.91 ± 0.098	1.95 ± 0.14
UCCAGU	1.63 ± 0.021	1.84 ± 0.11
CUUCCG	1.761 ± 0.017	1.89 ± 0.1
CUUCUG	1.78 ± 0.061	1.85 ± 0.057
AUAGCC	1.76 ± 0.022	1.87 ± 0.095
GUUUCU	1.711 ± 0.014	1.86 ± 0.097
UUCGCA	1.787 ± 0.014	1.9 ± 0.049
UGCUUA	1.75 ± 0.023	1.87 ± 0.095
UAGGUU	1.67 ± 0.051	1.82 ± 0.11
CCCGGG	1.7187 ± 0.00061	1.91 ± 0.14
UGACGG	1.68 ± 0.039	1.82 ± 0.11
UUAUAG	1.71 ± 0.046	1.8 ± 0.11
AAGCUG	1.64 ± 0.019	1.79 ± 0.076
GGUCAC	1.754 ± 0.014	1.87 ± 0.091
AACUGU	1.7 ± 0.023	1.85 ± 0.1
UCGGUG	1.68 ± 0.049	1.78 ± 0.13
UCAUAG	1.65 ± 0.02	1.77 ± 0.17
GGUUGA	1.57 ± 0.15	1.74 ± 0.035

Variant	normalized RNA/DNA level without ligand (log10) (cyclic di-GMP [1])	normalized RNA/DNA level with ligand (log10) (cyclic di-GMP [2])
CGCAGC	1.75 ± 0.027	1.87 ± 0.074
GCCGGC	1.56 ± 0.035	1.74 ± 0.2
CUGGCG	1.74 ± 0.057	1.85 ± 0.092
CUGGCU	1.771 ± 0.0077	1.87 ± 0.067
ACAGGC	1.5 ± 0.065	1.68 ± 0.11
UACAAU	1.64 ± 0.017	1.77 ± 0.13
CAUAAC	1.62 ± 0.028	1.75 ± 0.1
CUUUGC	1.795 ± 0.017	1.88 ± 0.11
CUAUGC	1.75 ± 0.042	1.86 ± 0.12
GCCCAU	1.67 ± 0.036	1.85 ± 0.15
CCCAAG	1.587 ± 0.0023	1.74 ± 0.17
GGGAUU	1.66 ± 0.024	1.77 ± 0.12
UACUUA	1.7 ± 0.055	1.84 ± 0.11
GCCCGU	1.73 ± 0.048	1.84 ± 0.14
GGAGCC	1.85 ± 0.011	1.9 ± 0.1
AGAGAG	1.46 ± 0.09	1.64 ± 0.14
AUCGUA	1.511 ± 0.0037	1.72 ± 0.16
AGCCCU	1.77 ± 0.047	1.88 ± 0.12
AACAUA	1.52 ± 0.076	1.74 ± 0.12
GUAACA	1.68 ± 0.035	1.81 ± 0.11
UCUUAU	1.683 ± 0.012	1.85 ± 0.14
CAAAAG	1.656 ± 0.0082	1.77 ± 0.14
UAGCGG	1.8203 ± 0.00054	1.95 ± 0.067

Variant	normalized RNA/DNA level without ligand (log10) (cyclic di-GMP [1])	normalized RNA/DNA level with ligand (log10) (cyclic di-GMP [2])
CAACGC	1.757 ± 0.014	1.84 ± 0.11
UGAUAA	1.633 ± 0.011	1.8 ± 0.089
CAGUAC	1.6 ± 0.018	1.74 ± 0.14
AUUGUC	1.73 ± 0.053	1.85 ± 0.15
AAUCAA	1.51 ± 0.1	1.73 ± 0.078
UGUCGA	1.76 ± 0.033	1.81 ± 0.14
UAGUCA	1.768 ± 0.017	1.91 ± 0.076
CCCCGC	1.77 ± 0.03	1.88 ± 0.11
AUGUGG	1.59 ± 0.051	1.72 ± 0.081
CUACCC	1.76 ± 0.046	1.88 ± 0.1
GUAUCG	1.63 ± 0.043	1.81 ± 0.098
CGGCAG	1.792 ± 0.0062	1.86 ± 0.077
GGCUCG	1.78 ± 0.055	1.87 ± 0.036
CAACCA	1.54 ± 0.084	1.71 ± 0.1
AUUGAG	1.57 ± 0.018	1.7 ± 0.13
GCAUUC	1.423 ± 0.011	1.7 ± 0.17
GUCCUU	1.7 ± 0.019	1.87 ± 0.1
GUCCUA	1.709 ± 0.0036	1.88 ± 0.083
UUGGCG	1.85 ± 0.022	1.94 ± 0.11
ACUCCA	1.7 ± 0.02	1.84 ± 0.11
ACCACA	1.6 ± 0.019	1.76 ± 0.13
CUCCGA	1.69 ± 0.016	1.82 ± 0.15
AGCUUA	1.57 ± 0.055	1.76 ± 0.11
